One may read the Kd as the concentration at which binding is half-saturated.

Experiment in all cases: SPR (Biacore T100), antibody captured on protein A chip, receptor injected as analyte
The target in one assay is T1, FcγRIIIa-F158 (UniProt P08637 17-208, limits assumed).
T1 construct: also called FcγRIIIa-F158 allele

In another assay the target is T2, FcγRIIIa-V158 (UniProt P08637 17-208, limits assumed).
T2 construct: It names the V158 allele but states no substitution against an entry; also called FcγRIIIa-V158 allele

The next assay deals with T3, FcγRIIb (UniProt P31994 46-217, limits assumed).
T3 construct: also called FcγIIb receptor
T3 sequence (looked up): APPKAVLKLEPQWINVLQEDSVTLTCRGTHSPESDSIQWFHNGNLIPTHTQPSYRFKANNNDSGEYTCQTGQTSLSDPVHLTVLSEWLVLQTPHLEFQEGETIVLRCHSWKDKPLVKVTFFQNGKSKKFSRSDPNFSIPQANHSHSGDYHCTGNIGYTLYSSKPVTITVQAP

T2 sequence (P08637 17-208 F176V limits assumed): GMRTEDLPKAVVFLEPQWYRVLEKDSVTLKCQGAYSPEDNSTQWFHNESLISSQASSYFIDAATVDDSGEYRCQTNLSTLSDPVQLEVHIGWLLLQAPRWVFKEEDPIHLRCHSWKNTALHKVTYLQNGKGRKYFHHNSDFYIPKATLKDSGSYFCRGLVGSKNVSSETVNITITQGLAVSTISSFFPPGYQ
T1 sequence (P08637 17-208 limits assumed): as the sequence (P08637 17-208 F176V limits assumed) above, with V160F counted along it

B1: commercial rituximab (rituxan, Genentech Inc.) (antibody)
chain 1: not shown
chain 2: QIVLSQSPAILSASPGEKVTMTCRASSSVSYIHWFQQKPGSSPKPWIYATNLASGVPVRFSGSGSGTSYSLTISRVEAEDAATYYCQQWTSNPPTFGGGTKLEIKRTVAAPSVFIFPPSDEQLKSGTASVVCLLNNFYPREAKVQWKVDNALQSGNSQESVTEQDSKDSTYSLSSTLTLSKADYEKHKVYACEVTHQGLSSPVTKSFNRGEC
As for B1, the Kd with FcγRIIIa-F158 was found to be 1.04 µM; with FcγRIIIa-V158, 0.252 µM; with FcγRIIb it was 2 µM.

These data come from patent US20150087814A1 (UNIVERSITY OF MARYLAND BALTIMORE, published 2015).
